Laboratory results published in the supplement of paper PMC12042874.
± gives the uncertainty stated by the source.

assay: amyloid nucleation score (Sup35N fusion, yeast selection) (log enrichment); library NNK1; higher = more nucleation; inactive = no reads after selection
Procedure, shortened: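 Plasmid inserts were Illumina-sequenced at input and output from psi-negative yeast expressing Sup35N fused to peptides of 20 random codons. The yeast were induced with 100 μM copper sulfate for 24 hours and grown 7 days at 30°C on medium lacking adenine and uracil, and sequences with under 100 input reads were excluded. Nucleation score is the DiMSum log enrichment of output over input reads, centred on the mode score of non-aggregating sequences.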

| Substance | amyloid nucleation score |
| --- | --- |
| HSWGRKVF | -1.1 ± 0.47 |
| HTISENRSGLVTP | -0.966 ± 0.9 |
| HTTFKGKSEAATRIIATQAR | -0.011 ± 0.41 |
| HTVKAK | -2.11 ± 1.1 |
| HTYDGHSVSGCTGHVMFLSS | -0.021 ± 0.41 |
| HVFSQ | -0.756 ± 2.4 |
| HVHRIN | -0.717 ± 1.1 |
| HVIQKSN | -0.988 ± 0.5 |
| HVLDRQLSPMDSNSYGCVAT | 0.208 ± 0.28 |
| HVLMIRWLWWGISRACKNSR | -0.193 ± 1.6 |
| HVVVRRIY | -0.065 ± 0.34 |
| HVWSILAISVYNAHRGSRV | 7.134 ± 0.051 |
| HVYCLRWRYC | -0.318 ± 0.35 |
| HVYLTWTGLVGLKWCSGCSA | -0.856 ± 2.4 |
| HVYVWKRTVPGIGRDQHNSR | 1.81 ± 0.6 |
| HWCLMGLCKLFSSARPPLKK | 0.085 ± 0.8 |
| HWFESDFAI | inactive |
| HWLFWCQR | inactive |
| HWLQY | 0.156 ± 0.43 |
| HWVLDWQAQVRMPRNSVSGL | inactive |
| HYDLWCLMFFLVSMMSVNCH | 0.972 ± 0.54 |
| HYIIIRFLNAELTLCHLRMI | -1.61 ± 1.7 |

| Substance | amyloid nucleation score |
| --- | --- |
| HYRCVRGYSFFVLLCDSRIQ | -0.497 ± 0.93 |
| HYRFCYCHSTKS | 1.76 ± 0.42 |
| HYTLIGIY | inactive |
| IACCVRSVECGRGCQLRGLA | 0.217 ± 0.83 |
| IAILIYASAFKSSSGCGVKS | 0.177 ± 0.64 |
| IALLNGNNLSPT | 9.502 ± 0.052 |
| IAMSIKWRRW | 2.8 ± 0.093 |
| IAPMSRRFEGMACSFTDEEA | inactive |
| IAPSNFRGWMAHYKV | 0.213 ± 0.57 |
| IASECWET | -0.391 ± 0.52 |
| IASVQLS | 1.16 ± 0.53 |
| IAVFRYFDSYRPFTRVSVLF | inactive |
| IAVPRRQPINLSN | 0.668 ± 0.56 |
| ICCVVESLCYSVMFKHIS | 4.55 ± 0.079 |
| ICFRIIVAIVQRV | 1.14 ± 0.38 |
| ICNFVSLFNWK | -0.025 ± 0.79 |
| ICNSLMEDDMGASEVMC | 0.734 ± 0.57 |
| ICQYPPLEVLARYGQIQDIM | 0.207 ± 0.3 |
| ICSYTSIVYLFWDDLSLSTL | 1.7 ± 0.64 |
| ICYVNVL | -1.18 ± 1.7 |
| IDLGFLNKCLCRNSCCVGEA | 1.81 ± 0.17 |
| IDMTEMKIRWV | -0.208 ± 0.27 |

| Substance | amyloid nucleation score |
| --- | --- |
| IDSFCKCDISCVIFSWIVVV | 0.024 ± 0.25 |
| IDSGRAKRLSHMIWISVRHG | -1.93 ± 2.7 |
| IDWKLKLMFMCFESKSLVNW | -0.655 ± 0.32 |
| IECMAMCHSVRSCCGSIYDC | -0.422 ± 0.38 |
| IEVGIVGNLS | inactive |
| IFAQKGYTSRFSILM | -0.565 ± 0.58 |
| IFFFKEYCFMQVIRGFVCN | -0.265 ± 1.1 |
| IFHSAVQTNLSGGCRAGVWL | 0.254 ± 0.83 |
| IFILIRYWHCITSSPDVGFG | -0.246 ± 0.61 |
| IFLIVMFPLFNDCLHCYKTC | 1.3 ± 0.13 |
| IFLPYI | -0.383 ± 1.4 |
| IFPPFMDFRNCPVMLNC | 0.761 ± 0.2 |
| IFSSGYAKAFVHLVCSVAQL | -0.458 ± 0.45 |
| IFTTSNQSEGRGVPAGNPNL | inactive |
| IFVYCEFNKNRIPALASWVG | 0.93 ± 0.43 |
| IFWTFRGITMPSC | 0.702 ± 0.55 |
| IGESDNG | -0.63 ± 0.56 |
| IGGLSGEYWFHLLSSSVLFF | inactive |
| IGHGTHG | 0.282 ± 0.49 |
| IGIPVLGMNINYCFLR | 0.931 ± 0.29 |
| IGLMALLGLTRDR | 2.17 ± 0.12 |
| IGPLYRFCMLNMRFGAGSLN | 0.428 ± 0.84 |

| Substance | amyloid nucleation score |
| --- | --- |
| IGTGLLS | 0.451 ± 0.62 |
| IGVKVTY | -0.796 ± 0.53 |
| IHKDFSLMHILRIHLVGVFS | inactive |
| IHKMCRAD | 0.12 ± 0.55 |
| IHNSVDKTYLCSVLNPRGYS | inactive |
| IHSQHKHVIMRA | -0.061 ± 0.57 |
| IHVSFKDYLTVSTIMMWTIV | -0.077 ± 0.66 |
| IIEIRLNLGAVANLSTYGVM | 0.327 ± 0.39 |
| IIEWFSWWARMIFDDFPYYE | inactive |
| IIFCMVFDSVSDDVLYITSK | -0.941 ± 0.99 |
| IIGLVWSVL | 0.993 ± 0.58 |
| IIICFRTWLTCSFCFDSAPC | 0.227 ± 0.49 |
| IIISTGVRFTEDSCGFAWAE | -0.009 ± 0.66 |
| IILIDMVCPPCRPRFRSYSC | -0.153 ± 0.69 |
| IILSAHVLSRTFLAFVSQKE | 0.146 ± 0.77 |
| IILWAWCKTGGDGIPSGVVL | 0.342 ± 0.23 |
| IINERSANLYDFVVIDRSWL | -1.04 ± 0.69 |
| IISAFISESTYDCGFASWVS | -0.187 ± 0.42 |
| IISDDNSGMWWVMFLV | 0.065 ± 0.61 |
| IISGIIIRYIDYNYRD | inactive |
| IKAELAKCLNTACVKFFCDV | 0.715 ± 0.37 |
| IKAWWMNHGRYHCLTLRVCL | 0.713 ± 0.38 |
